According to the supplement of paper PMC9112550, “Optimization of the antimicrobial peptide Bac7 by deep mutational scanning” (BMC Biology, 2022):

System: Escherichia coli TOP10
Experiment: shrunken log2 fold change of peptide-encoding DNA abundance (4.5 h post-induction vs induction); higher = less antimicrobial activity (less host growth inhibition)
Settings: time post-induction: 4.5 h; library: site-saturation at positions 5, 18, 19, 20
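Note: peptides expressed intracellularly from a pBAD plasmid library in pooled LB shake-flask culture, induced with 0.3% L-arabinose, DNA abundance read by NGS, three biological replicates, DESeq2 with apeglm shrinkage.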

Q: How did the “shrunken log2 fold change” value turn out when RRIRERPPRLPRPRPRPIHFPRP was run?
A: Its value is -0.00865.

Q: RRIRTRPPRLPRPRPRPHMAPRP was tested. Which “shrunken log2 fold change” value did it give?
A: The value was -0.123.

Q: How did the “shrunken log2 fold change” value turn out when RRIRDRPPRLPRPRPRPETYPRP was run?
A: The value was 0.217.

Q: Which “shrunken log2 fold change” value does the source give for RRIRCRPPRLPRPRPRPRSKPRP here?
A: The value was 0.0908.

Q: With RRIRFRPPRLPRPRPRPCWAPRP as the sequence, how does the “shrunken log2 fold change” value read?
A: Its value is 0.105.

Q: With RRIRVRPPRLPRPRPRPNFKPRP as the sequence, how does the “shrunken log2 fold change” value read?
A: The value was -0.0173.

Q: Which “shrunken log2 fold change” value does the source give for RRIRDRPPRLPRPRPRPRKRPRP here?
A: The value was 0.382.

Q: For RRIRERPPRLPRPRPRPVKWPRP, which “shrunken log2 fold change” value is on record?
A: The value was -0.129.

Q: How did the “shrunken log2 fold change” value turn out when RRIRFRPPRLPRPRPRPHLWPRP was run?
A: The value was 0.185.

Q: With RRIRMRPPRLPRPRPRPDEVPRP as the sequence, how does the “shrunken log2 fold change” value read?
A: The value was 0.00989.

Q: Which “shrunken log2 fold change” value does the source give for RRIRWRPPRLPRPRPRPVMQPRP here?
A: Its value is 0.294.

Q: Which “shrunken log2 fold change” value does the source give for RRIRQRPPRLPRPRPRPYLPPRP here?
A: Its value is -0.0206.

Q: RRIRKRPPRLPRPRPRPEQQPRP was tested. Which “shrunken log2 fold change” value did it give?
A: The value was 1.43.

Q: Which “shrunken log2 fold change” value does the source give for RRIRQRPPRLPRPRPRPNDWPRP here?
A: Its value is 0.142.

Q: With RRIRWRPPRLPRPRPRPQPSPRP as the sequence, how does the “shrunken log2 fold change” value read?
A: The value was 0.287.

Q: Which “shrunken log2 fold change” value does the source give for RRIRDRPPRLPRPRPRPKIKPRP here?
A: Its value is 2.05.

Q: How did the “shrunken log2 fold change” value turn out when RRIRDRPPRLPRPRPRPMVGPRP was run?
A: Its value is 0.564.

Q: How did the “shrunken log2 fold change” value turn out when RRIRFRPPRLPRPRPRPYNLPRP was run?
A: The value was -0.322.

Q: With RRIRGRPPRLPRPRPRPRMRPRP as the sequence, how does the “shrunken log2 fold change” value read?
A: The value was 1.38.

Q: How did the “shrunken log2 fold change” value turn out when RRIRLRPPRLPRPRPRPSHPPRP was run?
A: The value was -0.516.

Q: With RRIRYRPPRLPRPRPRPSEEPRP as the sequence, how does the “shrunken log2 fold change” value read?
A: Its value is -0.111.

Q: With RRIRQRPPRLPRPRPRPSWFPRP as the sequence, how does the “shrunken log2 fold change” value read?
A: Its value is -0.323.

Q: How did the “shrunken log2 fold change” value turn out when RRIRNRPPRLPRPRPRPNCQPRP was run?
A: Its value is -0.182.

Q: For RRIRYRPPRLPRPRPRPCSFPRP, which “shrunken log2 fold change” value is on record?
A: The value was -0.0048.

Q: How did the “shrunken log2 fold change” value turn out when RRIRRRPPRLPRPRPRPATSPRP was run?
A: The value was 0.0892.

Q: With RRIRWRPPRLPRPRPRPGKEPRP as the sequence, how does the “shrunken log2 fold change” value read?
A: The value was -0.0139.

Q: How did the “shrunken log2 fold change” value turn out when RRIRKRPPRLPRPRPRPTDRPRP was run?
A: The value was 0.209.

Q: RRIRSRPPRLPRPRPRPICQPRP was tested. Which “shrunken log2 fold change” value did it give?
A: The value was -0.00676.

Q: Which “shrunken log2 fold change” value does the source give for RRIRWRPPRLPRPRPRPLYQPRP here?
A: The value was -0.363.

Q: For RRIRHRPPRLPRPRPRPKNCPRP, which “shrunken log2 fold change” value is on record?
A: The value was 0.00397.

Q: Which “shrunken log2 fold change” value does the source give for RRIRYRPPRLPRPRPRPEAFPRP here?
A: The value was -0.00226.

Q: RRIRPRPPRLPRPRPRPNWFPRP was tested. Which “shrunken log2 fold change” value did it give?
A: The value was 0.283.

Q: With RRIRCRPPRLPRPRPRPWRKPRP as the sequence, how does the “shrunken log2 fold change” value read?
A: The value was 0.119.

Q: With RRIRPRPPRLPRPRPRPKRQPRP as the sequence, how does the “shrunken log2 fold change” value read?
A: The value was 0.0603.

Q: RRIRIRPPRLPRPRPRPMPDPRP was tested. Which “shrunken log2 fold change” value did it give?
A: Its value is 0.0702.

Q: How did the “shrunken log2 fold change” value turn out when RRIRGRPPRLPRPRPRPGMRPRP was run?
A: Its value is 1.68.

Q: For RRIRPRPPRLPRPRPRPETNPRP, which “shrunken log2 fold change” value is on record?
A: The value was 0.192.

Q: Which “shrunken log2 fold change” value does the source give for RRIRVRPPRLPRPRPRPQNNPRP here?
A: The value was -0.66.

Q: How did the “shrunken log2 fold change” value turn out when RRIRWRPPRLPRPRPRPFHFPRP was run?
A: The value was -0.451.

Q: Which “shrunken log2 fold change” value does the source give for RRIRSRPPRLPRPRPRPACIPRP here?
A: The value was -0.31.

Q: How did the “shrunken log2 fold change” value turn out when RRIRPRPPRLPRPRPRPLAKPRP was run?
A: Its value is 0.261.

Q: How did the “shrunken log2 fold change” value turn out when RRIRGRPPRLPRPRPRPAPVPRP was run?
A: The value was 0.925.

Q: How did the “shrunken log2 fold change” value turn out when RRIRERPPRLPRPRPRPYDIPRP was run?
A: Its value is -0.136.

Q: With RRIRWRPPRLPRPRPRPKCFPRP as the sequence, how does the “shrunken log2 fold change” value read?
A: Its value is -0.076.

Q: For RRIRLRPPRLPRPRPRPFTWPRP, which “shrunken log2 fold change” value is on record?
A: Its value is -0.369.

Q: RRIRDRPPRLPRPRPRPWICPRP was tested. Which “shrunken log2 fold change” value did it give?
A: The value was -0.298.

Q: With RRIRARPPRLPRPRPRPKWKPRP as the sequence, how does the “shrunken log2 fold change” value read?
A: Its value is -0.291.

Q: RRIRGRPPRLPRPRPRPNWDPRP was tested. Which “shrunken log2 fold change” value did it give?
A: The value was 0.738.

Q: How did the “shrunken log2 fold change” value turn out when RRIRARPPRLPRPRPRPWRPPRP was run?
A: Its value is 0.348.

Q: How did the “shrunken log2 fold change” value turn out when RRIRPRPPRLPRPRPRPWCSPRP was run?
A: Its value is -0.201.

Q: For RRIRWRPPRLPRPRPRPNFFPRP, which “shrunken log2 fold change” value is on record?
A: Its value is 0.0572.

Q: For RRIRDRPPRLPRPRPRPWHDPRP, which “shrunken log2 fold change” value is on record?
A: Its value is 0.0315.

Q: With RRIRTRPPRLPRPRPRPYNEPRP as the sequence, how does the “shrunken log2 fold change” value read?
A: Its value is -1.35.

Q: RRIRLRPPRLPRPRPRPHEPPRP was tested. Which “shrunken log2 fold change” value did it give?
A: Its value is -0.0213.

Q: Which “shrunken log2 fold change” value does the source give for RRIRGRPPRLPRPRPRPGEEPRP here?
A: Its value is 0.965.

Q: RRIRARPPRLPRPRPRPCVEPRP was tested. Which “shrunken log2 fold change” value did it give?
A: Its value is 0.317.

Q: Which “shrunken log2 fold change” value does the source give for RRIRKRPPRLPRPRPRPHWHPRP here?
A: Its value is -0.0666.

Q: RRIRHRPPRLPRPRPRPPMTPRP was tested. Which “shrunken log2 fold change” value did it give?
A: Its value is -0.175.

Q: Which “shrunken log2 fold change” value does the source give for RRIRWRPPRLPRPRPRPVLAPRP here?
A: The value was 0.582.

Q: For RRIRMRPPRLPRPRPRPHDFPRP, which “shrunken log2 fold change” value is on record?
A: Its value is 0.143.

Q: RRIRGRPPRLPRPRPRPMTWPRP was tested. Which “shrunken log2 fold change” value did it give?
A: Its value is 0.17.

Q: How did the “shrunken log2 fold change” value turn out when RRIRYRPPRLPRPRPRPMHAPRP was run?
A: The value was 0.495.

Q: RRIRGRPPRLPRPRPRPLNQPRP was tested. Which “shrunken log2 fold change” value did it give?
A: The value was 0.725.

Q: RRIRSRPPRLPRPRPRPLQFPRP was tested. Which “shrunken log2 fold change” value did it give?
A: The value was 0.0849.

Q: How did the “shrunken log2 fold change” value turn out when RRIRYRPPRLPRPRPRPEIEPRP was run?
A: The value was -0.0892.

Q: Which “shrunken log2 fold change” value does the source give for RRIRTRPPRLPRPRPRPVRTPRP here?
A: Its value is 0.149.

Q: RRIRNRPPRLPRPRPRPGTIPRP was tested. Which “shrunken log2 fold change” value did it give?
A: Its value is -0.316.

Q: How did the “shrunken log2 fold change” value turn out when RRIRHRPPRLPRPRPRPTQRPRP was run?
A: The value was 0.462.

Q: How did the “shrunken log2 fold change” value turn out when RRIRDRPPRLPRPRPRPGSPPRP was run?
A: Its value is 0.0355.

Q: RRIRPRPPRLPRPRPRPNKWPRP was tested. Which “shrunken log2 fold change” value did it give?
A: The value was -0.232.

Q: How did the “shrunken log2 fold change” value turn out when RRIRERPPRLPRPRPRPPVLPRP was run?
A: The value was 0.127.

Q: For RRIRGRPPRLPRPRPRPKPAPRP, which “shrunken log2 fold change” value is on record?
A: The value was 1.42.

Q: RRIRLRPPRLPRPRPRPWLKPRP was tested. Which “shrunken log2 fold change” value did it give?
A: The value was 0.0827.

Q: How did the “shrunken log2 fold change” value turn out when RRIRMRPPRLPRPRPRPATFPRP was run?
A: The value was 0.376.

Q: RRIRNRPPRLPRPRPRPDPAPRP was tested. Which “shrunken log2 fold change” value did it give?
A: The value was 0.172.
